The source of these data is paper PMC12990809.

Test in all cases: pulldown
For data set [1], the target named is T1, LmjF.29.1340 (Leishmania major) (UniProt E9ADZ3).
T1 sequence: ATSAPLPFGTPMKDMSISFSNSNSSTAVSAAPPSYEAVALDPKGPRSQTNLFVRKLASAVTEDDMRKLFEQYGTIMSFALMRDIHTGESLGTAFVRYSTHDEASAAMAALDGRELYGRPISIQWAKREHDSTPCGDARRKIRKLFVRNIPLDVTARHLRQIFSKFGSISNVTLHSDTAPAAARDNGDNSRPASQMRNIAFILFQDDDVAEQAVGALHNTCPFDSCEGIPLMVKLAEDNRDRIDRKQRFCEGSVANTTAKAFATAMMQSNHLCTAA
Conditions: 20 nM protein, 1.5 uM RNA pool; 20 mM HEPES pH 7.8, 70 mM KCl, 10 mM NaCl, 10% glycerol, 2 mM DTT, 0.1 ug/uL BSA; 30 min, 4 C.

The target of data set [2] is T2, HRP1 (Saccharomyces cerevisiae) (UniProt Q99383).
T2 sequence: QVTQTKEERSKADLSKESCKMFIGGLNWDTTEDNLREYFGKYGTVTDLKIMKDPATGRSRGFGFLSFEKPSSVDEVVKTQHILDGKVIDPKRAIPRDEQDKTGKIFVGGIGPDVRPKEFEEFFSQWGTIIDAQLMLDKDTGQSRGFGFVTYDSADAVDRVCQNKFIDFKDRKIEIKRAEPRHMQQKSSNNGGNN
Conditions: 20 nM protein, 1.5 uM RNA pool; 20 mM HEPES pH 7.8, 70 mM KCl, 10 mM NaCl, 10% glycerol, 2 mM DTT, 0.1 ug/uL BSA; 30 min, 4 C (protocol of this paper; not …); cited from earlier work.

Data set [3] addresses T3, Tb11.01.3940 (Trypanosoma brucei) (UniProt Q382W9).
T3 sequence: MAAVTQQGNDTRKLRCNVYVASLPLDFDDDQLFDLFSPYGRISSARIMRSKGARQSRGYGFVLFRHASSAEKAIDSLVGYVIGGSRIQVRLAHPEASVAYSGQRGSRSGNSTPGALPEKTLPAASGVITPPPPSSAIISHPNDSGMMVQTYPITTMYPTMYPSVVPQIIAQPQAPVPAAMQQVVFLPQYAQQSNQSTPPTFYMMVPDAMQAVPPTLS
Conditions: 20 nM protein, 1.5 uM RNA pool; 20 mM HEPES pH 7.8, 70 mM KCl, 10 mM NaCl, 10% glycerol, 2 mM DTT, 0.1 ug/uL BSA; 30 min, 4 C.

Data set [4] deals with T4, LmjF.29.1350 (Leishmania major) (UniProt E9ADZ4).
T4 sequence: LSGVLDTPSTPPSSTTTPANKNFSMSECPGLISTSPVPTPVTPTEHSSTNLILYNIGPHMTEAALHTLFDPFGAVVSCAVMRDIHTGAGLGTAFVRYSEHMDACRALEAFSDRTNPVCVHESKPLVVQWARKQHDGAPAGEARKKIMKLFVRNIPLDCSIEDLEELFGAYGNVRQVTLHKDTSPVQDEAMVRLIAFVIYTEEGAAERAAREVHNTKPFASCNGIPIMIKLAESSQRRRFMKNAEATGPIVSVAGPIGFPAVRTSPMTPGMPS
Conditions: 20 nM protein, 1.5 uM RNA pool; 20 mM HEPES pH 7.8, 70 mM KCl, 10 mM NaCl, 10% glycerol, 2 mM DTT, 0.1 ug/uL BSA; 30 min, 4 C.

Data set [5] deals with T5, LmjF.29.0680 D253N (Leishmania major) (UniProt E9ADS0).
T5 sequence: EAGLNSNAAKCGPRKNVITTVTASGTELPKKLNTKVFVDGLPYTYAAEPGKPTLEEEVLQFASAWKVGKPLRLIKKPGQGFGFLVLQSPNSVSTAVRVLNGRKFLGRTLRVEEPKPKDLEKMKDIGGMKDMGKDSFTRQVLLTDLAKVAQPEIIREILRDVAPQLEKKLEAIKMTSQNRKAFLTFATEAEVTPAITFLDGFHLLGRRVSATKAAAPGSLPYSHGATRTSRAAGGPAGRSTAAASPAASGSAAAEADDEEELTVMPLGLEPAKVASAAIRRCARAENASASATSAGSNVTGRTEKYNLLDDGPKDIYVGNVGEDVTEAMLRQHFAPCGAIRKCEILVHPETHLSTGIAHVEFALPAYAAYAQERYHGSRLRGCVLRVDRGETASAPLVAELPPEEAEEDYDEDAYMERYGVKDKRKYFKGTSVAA
Conditions: 20 nM protein, 1.5 uM RNA pool; 20 mM HEPES pH 7.8, 70 mM KCl, 10 mM NaCl, 10% glycerol, 2 mM DTT, 0.1 ug/uL BSA; 30 min, 4 C.

A further data set addresses ELAVL1 (Homo sapiens) (UniProt Q15717). Conditions: 20 nM protein, 1.5 uM RNA pool; 20 mM HEPES pH 7.8, 70 mM KCl, 10 mM NaCl, 10% glycerol, 2 mM DTT, 0.1 ug/uL BSA; 30 min, 4 C (protocol of this paper; not …); cited from earlier work.
The target of data set [6] is T6, LmjF.32.2810 (Leishmania major) (UniProt Q4Q4Z4).
T6 sequence: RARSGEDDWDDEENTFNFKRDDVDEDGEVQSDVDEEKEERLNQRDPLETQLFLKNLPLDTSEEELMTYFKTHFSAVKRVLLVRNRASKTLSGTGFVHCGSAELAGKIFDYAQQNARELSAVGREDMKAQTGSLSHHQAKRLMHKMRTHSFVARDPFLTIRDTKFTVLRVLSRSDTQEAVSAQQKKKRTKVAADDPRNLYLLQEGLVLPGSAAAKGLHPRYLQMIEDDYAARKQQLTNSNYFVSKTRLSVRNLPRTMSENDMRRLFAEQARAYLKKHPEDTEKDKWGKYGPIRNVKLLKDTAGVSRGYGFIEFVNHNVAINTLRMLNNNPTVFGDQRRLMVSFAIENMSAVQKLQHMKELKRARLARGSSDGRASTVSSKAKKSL
To be noted: 20 nM protein, 1.5 uM RNA pool; 20 mM HEPES pH 7.8, 70 mM KCl, 10 mM NaCl, 10% glycerol, 2 mM DTT, 0.1 ug/uL BSA; 30 min, 4 C.

The target in data set [7] is T7, SCHCODRAFT_72118 N130T;T236A;D255N (Schizophyllum commune) (UniProt A0ACF2F787).
T7 sequence: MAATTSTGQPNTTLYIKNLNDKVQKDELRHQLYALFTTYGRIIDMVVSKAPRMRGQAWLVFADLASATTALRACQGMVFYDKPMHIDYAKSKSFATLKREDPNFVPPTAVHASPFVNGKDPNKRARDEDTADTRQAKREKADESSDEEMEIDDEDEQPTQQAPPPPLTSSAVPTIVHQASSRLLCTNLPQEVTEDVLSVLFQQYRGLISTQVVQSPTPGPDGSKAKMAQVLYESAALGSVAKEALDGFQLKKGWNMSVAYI
Conditions: 20 nM protein, 1.5 uM RNA pool; 20 mM HEPES pH 7.8, 70 mM KCl, 10 mM NaCl, 10% glycerol, 2 mM DTT, 0.1 ug/uL BSA; 30 min, 4 C.

The target in data set [8] is T8, NEMVEDRAFT_v1g141408 (Nematostella vectensis) (UniProt A7T170).
T8 sequence: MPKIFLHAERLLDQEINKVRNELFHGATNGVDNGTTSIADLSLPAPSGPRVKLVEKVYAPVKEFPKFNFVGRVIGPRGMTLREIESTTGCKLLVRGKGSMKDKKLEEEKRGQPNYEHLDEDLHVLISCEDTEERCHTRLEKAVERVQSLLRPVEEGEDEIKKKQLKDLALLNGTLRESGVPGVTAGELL
Conditions: 20 nM protein, 1.5 uM RNA pool; 20 mM HEPES pH 7.8, 70 mM KCl, 10 mM NaCl, 10% glycerol, 2 mM DTT, 0.1 ug/uL BSA; 30 min, 4 C.

Sequence of ELAVL1 (Homo sapiens) (Q15717 1-325): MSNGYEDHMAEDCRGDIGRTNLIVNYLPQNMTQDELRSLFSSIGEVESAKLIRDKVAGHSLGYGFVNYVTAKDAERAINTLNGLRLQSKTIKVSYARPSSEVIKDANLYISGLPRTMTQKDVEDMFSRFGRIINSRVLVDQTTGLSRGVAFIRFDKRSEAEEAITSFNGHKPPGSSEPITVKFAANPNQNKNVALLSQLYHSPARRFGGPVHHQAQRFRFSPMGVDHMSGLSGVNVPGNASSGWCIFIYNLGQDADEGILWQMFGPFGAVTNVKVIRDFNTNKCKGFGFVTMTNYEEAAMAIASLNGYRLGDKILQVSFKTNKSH

Substance CAUAGU [RNAcompete motif RNCMPT00712] gave a binding signal (z-score (mean of top ten 7-mers)) in data set [1] of 16.4.
In the case of UAUGUA [RNAcompete motif RNCMPT00031], the binding signal (z-score (mean of top ten 7-mers)) in data set [2] was 23.4.
As to CUUAACC [RNAcompete motif RNCMPT00695], the binding signal (z-score (mean of top ten 7-mers)) in data set [3] is 14.8.
In the case of CAUAGU [RNAcompete motif RNCMPT00713], the binding signal (z-score (mean of top ten 7-mers)) in data set [4] was determined as 24.5.
Consider GAAGGA [RNAcompete motif RNCMPT00720], for which the binding signal (z-score (mean of top ten 7-mers)) in data set [5] worked out at 7.49.
For UUAUUUU [RNAcompete motif RNCMPT00032], in the data set with ELAVL1 (Homo sapiens), the binding signal (z-score (mean of top ten 7-mers)) was 15.
In data set [6], GUAGNA [RNAcompete motif RNCMPT00716] came in with a binding signal (z-score (mean of top ten 7-mers)) of 6.94.
UGCACA [RNAcompete motif RNCMPT00723] had a binding signal (z-score (mean of top ten 7-mers)) in data set [7] of 8.86.
In data set [8], ACUAAC [RNAcompete motif RNCMPT00718] returned a binding signal (z-score (mean of top ten 7-mers)) of 18.9.
